In US20080009021A1:

Biological target: E3 His-ROC1/Cul1 complex (UniProt Q13616)
Assay: cell-based or functional assay

Flag-ubiquitin moiety
amount of E3 giving maximum attachment of ubiquitin moiety to E3 (luminescence, nickel plate) (ng per 100 µl): 200 to 300
